# According to paper PMC9898148 (Structure (London, England : 1993), 2022):
# T1: hNAA30^211-362 (catalytic subunit of human NatC, N-terminally truncated) (human, UniProt Q147X3 211-362)
# T1 sequence (looked up): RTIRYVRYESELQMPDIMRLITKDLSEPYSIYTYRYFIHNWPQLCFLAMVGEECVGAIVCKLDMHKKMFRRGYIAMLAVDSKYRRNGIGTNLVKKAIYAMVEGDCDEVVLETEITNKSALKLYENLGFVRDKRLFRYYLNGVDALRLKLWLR
# T2: hNAA35^28-725 (large auxiliary subunit of human NatC, N-terminally truncated) (human, UniProt Q5VZE5 28-725)
# T2 sequence (looked up): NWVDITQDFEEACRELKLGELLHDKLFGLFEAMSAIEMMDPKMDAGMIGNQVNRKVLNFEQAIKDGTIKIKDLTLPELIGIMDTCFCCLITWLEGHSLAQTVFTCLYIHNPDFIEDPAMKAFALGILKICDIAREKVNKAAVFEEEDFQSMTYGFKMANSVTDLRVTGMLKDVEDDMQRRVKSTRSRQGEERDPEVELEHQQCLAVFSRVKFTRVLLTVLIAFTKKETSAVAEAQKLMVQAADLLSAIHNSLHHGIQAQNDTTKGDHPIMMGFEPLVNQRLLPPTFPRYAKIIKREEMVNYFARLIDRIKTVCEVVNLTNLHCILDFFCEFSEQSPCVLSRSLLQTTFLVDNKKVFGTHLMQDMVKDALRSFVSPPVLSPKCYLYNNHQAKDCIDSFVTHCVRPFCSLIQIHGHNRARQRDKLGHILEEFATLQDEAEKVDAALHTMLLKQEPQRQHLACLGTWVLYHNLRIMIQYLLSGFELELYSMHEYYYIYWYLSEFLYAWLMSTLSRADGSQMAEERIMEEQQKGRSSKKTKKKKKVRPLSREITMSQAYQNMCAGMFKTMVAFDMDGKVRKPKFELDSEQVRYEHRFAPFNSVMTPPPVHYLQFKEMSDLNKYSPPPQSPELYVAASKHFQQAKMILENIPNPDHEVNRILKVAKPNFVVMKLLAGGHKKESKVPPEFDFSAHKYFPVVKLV
# B1: hNAA38^1-125 (small auxiliary subunit of human NatC, full length) (natural protein, UniProt Q9BRA0 1-125, looked up)
# chain: MAGAGPTMLLREENGCCSRRQSSSSAGDSDGEREDSAAERARQQLEALLNKTMRIRMTDGRTLVGCFLCTDRDCNVILGSAQEFLKPSDSFSAGEPRVLGLAMVPGHHIVSIEVQRESLTGPPYL
# Legend:
# [1] = target: T1, hNAA30^211-362 (catalytic subunit of …); assay: cryo-EM structure
# [2] = target: T2, hNAA35^28-725 (large auxiliary subunit …); assay: cryo-EM structure
Binder,binding result [1],binding result [2]
{CoA‑Ac}-MLGPE-NH2 [CoA-Ac-MLGPE-NH2 bisubstrate inhibitor],binds,
B1,,binds
